The values below come from article PMC12329534, “Sal is a proteobacterial bile acid aldolase that repurposes key thiolase catalytic residues for retroaldol cleavage of C5 steroid side chains” (The Journal of Biological Chemistry, 2025).

Data set [1] relates to T1, C[C@H](C(O)CC(=O)SCCNC(=O)CCNC(=O)[C@H](O)C(C)(C)COP(=O)(O)OP(=O)(O)OC[C@H]1O[C@@H](n2cnc3c(N)ncnc32)[C@H](O)[C@@H]1OP(=O)(O)O)[C@H]1CC[C@H]2[C@@H]3[C@H](O)C[C@@H]4C[C@H](O)CC[C@]4(C)[C@H]3C[C@H](O)[C@]12C.
T1 construct: full-length CtShy–CtSal complex co-expressed in E. coli BL21 LOBSTR, His-tag purified; heterotetramer, 160 kDa by SEC (CtShy 35 kDa, CtSal 46 kDa); with Steroid hydratase Shy (DUF35/OB-fold and MaoC domain-containing protein)
The data set is described as follows: purified protein. Type of data set: biochemical, Comamonas testosteroni. The conditions noted are these: apparent, 1 mM NAD+ and 7 nM CtSad for coupling, 100 mM HEPES pH 7.5, 25 °C.

Data set [2] has as its target T2, 17-β-hydroxysteroid dehydrogenase (Hsd4A) (Rhodococcus jostii, UniProt Q0S7K5).
T2 construct: isolated enzyme; construct not described in main text
T2 sequence (Q0S7K5 1-305): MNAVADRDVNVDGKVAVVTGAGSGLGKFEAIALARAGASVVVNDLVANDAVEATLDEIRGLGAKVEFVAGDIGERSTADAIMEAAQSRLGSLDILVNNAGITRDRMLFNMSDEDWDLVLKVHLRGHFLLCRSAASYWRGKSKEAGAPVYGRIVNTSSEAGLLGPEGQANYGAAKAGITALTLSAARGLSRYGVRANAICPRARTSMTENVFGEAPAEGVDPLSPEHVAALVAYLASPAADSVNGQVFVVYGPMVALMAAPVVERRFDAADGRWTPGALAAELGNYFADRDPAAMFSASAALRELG
The data set is described as follows: LC-MS/MS of product; NADH formation at […] nm. The data set is classed as biochemical. The conditions noted are these: 1 mM NAD+; substrate made in situ from cholyl-enoyl-CoA by CtShy–CtSal; 100 mM HEPES pH 7.5, 25 °C or 50 mM ammonium acetate pH 7.4.

Data set [3] has as its target T3, CtShy–CtSal complex (CtSal steroid aldolase activity) (Comamonas testosteroni, UniProt B7X4S8).
T3 construct: gene CtesDRAFT_PD3654; full-length CtShy–CtSal complex co-expressed in E. coli BL21 LOBSTR, His-tag purified; heterotetramer, 160 kDa by SEC (CtShy 35 kDa, CtSal 46 kDa); with Steroid hydratase Shy (DUF35/OB-fold and MaoC domain-containing protein)
T3 sequence (B7X4S8 1-404): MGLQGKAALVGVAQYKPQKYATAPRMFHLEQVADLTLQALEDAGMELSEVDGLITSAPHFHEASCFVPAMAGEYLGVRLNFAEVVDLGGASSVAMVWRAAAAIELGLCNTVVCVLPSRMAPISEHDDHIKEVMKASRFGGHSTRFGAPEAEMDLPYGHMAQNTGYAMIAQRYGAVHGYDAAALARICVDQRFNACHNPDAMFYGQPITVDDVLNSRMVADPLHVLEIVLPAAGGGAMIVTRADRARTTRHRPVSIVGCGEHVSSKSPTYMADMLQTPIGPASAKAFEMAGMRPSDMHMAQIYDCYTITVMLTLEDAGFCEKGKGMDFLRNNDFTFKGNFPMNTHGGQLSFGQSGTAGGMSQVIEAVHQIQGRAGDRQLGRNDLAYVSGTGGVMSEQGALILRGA
T3 sequence (B7X4S7 1-312 partner): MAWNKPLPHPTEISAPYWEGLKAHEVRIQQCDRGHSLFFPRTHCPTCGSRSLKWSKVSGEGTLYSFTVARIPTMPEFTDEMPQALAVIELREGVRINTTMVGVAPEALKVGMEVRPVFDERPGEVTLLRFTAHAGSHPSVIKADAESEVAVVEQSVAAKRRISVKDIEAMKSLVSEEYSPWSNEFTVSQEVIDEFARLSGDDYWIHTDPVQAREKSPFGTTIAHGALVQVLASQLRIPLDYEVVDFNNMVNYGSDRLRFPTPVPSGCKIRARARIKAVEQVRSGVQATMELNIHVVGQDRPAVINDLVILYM
The data set is described as follows: CtSad-coupled NADH formation at […] nm. Type of data set: biochemical. The conditions noted are these: apparent; 1 mM NAD+ and 7 nM CtSad for coupling, 100 mM HEPES pH 7.5, 25 °C.

Data set [4] addresses T4, CtShy–CtSal complex (CtShy steroid hydratase activity) (Comamonas testosteroni, UniProt B7X4S7).
T4 construct: gene CtesDRAFT_PD3653; full-length CtShy–CtSal complex from E. coli BL21 LOBSTR, His-tag purified; MaoC domain of CtShy is the hydratase domain; with Steroid aldolase Sal (thiolase-like protein)
T4 sequence (B7X4S7 1-312): T3 sequence (B7X4S7 1-312 partner)
The data set is described as follows: LC-MS/MS of products; Hsd4A-coupled NADH end point. Type of data set: biochemical. The conditions noted are these: 50 mM ammonium acetate pH 7.4 (LC-MS) or 100 mM HEPES pH 7.5, 25 °C; NAD+ and excess Hsd4A.

The Km is the substrate concentration at which the rate is half of its maximum. One may read the kcat as the number of substrate molecules converted per active site and unit of time at saturation. What is called kcat/Km is the turnover number divided by the Michaelis constant. In the case of “CtShy–CtSal complex (CtSal steroid aldolase activity) (Comamonas testosteroni KF-1; R216A)”, in data set [1], the Km worked out at 41.4 ± 1.29 µM, the kcat was 11.6 ± 0.15 s⁻¹ and the catalytic efficiency (kcat/Km) was 281000 ± 876 M⁻¹ s⁻¹.
Regarding `C[C@H](C(O)CC(=O)SCCNC(=O)CCNC(=O)[C@H](O)C(C)(C)COP(=O)(O)OP(=O)(O)OC[C@H]1O[C@@H](n2cnc3c(N)ncnc32)[C@H](O)[C@@H]1OP(=O)(O)O)[C@H]1CC[C@H]2[C@@H]3[C@H](O)C[C@@H]4C[C@H](O)CC[C@]4(C)[C@H]3C[C@H](O)[C@]12C` (stereo partly drawn) [Cholyl-22-OH-CoA], in data set [2], the “LC-MS/MS of product; NADH formation at 340 nm” value is reported as “Hsd4A effectively sequestered the CtShy product to form cholyl-22-oxo-CoA”. In data set [3], the Km worked out at 8.12 ± 0.477 µM.
On to `C[C@H](/C=C/C(=O)SCCNC(=O)CCNC(=O)[C@H](O)C(C)(C)COP(=O)(O)OP(=O)(O)OC[C@H]1O[C@@H](n2cnc3c(N)ncnc32)[C@H](O)[C@@H]1OP(=O)(O)O)[C@H]1CC[C@H]2[C@@H]3[C@H](O)C[C@@H]4C[C@H](O)CC[C@]4(C)[C@H]3C[C@H](O)[C@]12C` [cholyl-enoyl-CoA], for which the “LC-MS/MS of products; Hsd4A-coupled NADH end point” value in data set [4] is “Hsd4A effectively sequestered the CtShy product to form cholyl-22-oxo-CoA”.
